peptoid linker = not defined here
What was measured:
[1] = ICP-MS of leg muscles for Gd(III) retention after day 4; type: in vivo, mice; settings: after four days; intramuscular PA gel 1 wt %, 10 mol % Gd(III)-PA
Method: To measure degradation in vivo, six wild-type mice received approximately 4 μL injections of PA gels at 1 wt % loaded with 10 mol % Gd(III)-PA relative to C16V3A3E3-NH2. The injections were applied with a modified syringe pump designed to inject while withdrawing the needle to produce a gelled track of PA in situ. Injection volume varied because track length varied slightly with mouse size and small variations in each injection geometry. The tract geometry was chosen to give accurate T1 determinations because imaging slice thickness could be greater without volume averaging effects. A total of five legs were injected with PA1, four legs with PA3, and three with 100% C16V3A3E3-NH2 as a control. Mice were imaged at day 0 immediately after injections and again at day 4. The Gd(III)-PA was clearly visible in all cases (FIG. 5). […]
For Gd(III) analysis, mouse leg muscles were excised and digested in 1 mL of nitric acid per gram of tissue in Teflon tubes. […] Digest was diluted and measured using the same conditions as above.
All measurements used a Thermo X series II ICP-MS (Thermo Fisher Scientific, Waltham, Mass., USA) operating with an ESI SC-2 autosampler (Omaha, Nebr., USA). […] The two most common isotopes of Gd, 157Gd and 158Gd, were measured. 115In and 165Ho were measured as internal standards.

[2] = 1H NMRD profiles, fits with modified Florence approach; type: physicochemical; settings: fits at 37° C.
Method: ^1NMRD profiles were collected with a Stelar Spinmaster FFC-2000-1T fast field cycling relaxometer in the 0.01-40 MHz proton Larmor frequency range, at 293 and 310 K. Longitudinal relaxation rates were measured with an error smaller than 1%. Proton relaxivities were calculated by subtracting the diamagnetic contribution of the peptide nanofibers in the absence of Gd(III) from the relaxation rates of the paramagnetic samples, and normalizing to 1 mM Gd(III) concentration. The profiles were analyzed using the Freed model for outer-sphere relaxation (refs. 48, 49; incorporated by reference in their entireties) and the modified Florence NMRD program for the inner-sphere relaxation (refs. 45, 46, 50; incorporated by reference in their entireties). The effect of static ZFS on nuclear relaxation is considered along with transient ZFS, where modulation is responsible for electron relaxation, provided molecular reorientation time is much longer than electron relaxation time (refs 51,52; incorporated by reference in their entireties). In order to establish which parameter was dominant in relaxivity changes, NMRD profiles of each PA were measured. NMRD profiles for all four PAs at 25° and 37° C. are shown in FIG. 3 with parameter fits obtained using the “modified Florence” approach (refs. 44-46;1 incorporated by reference in their entireties). In the fits, a Lipari-Szabo order parameter S^2 was included to consider the effect of local motions which may superimpose to the global motion of the nanostructures. A smaller S^2 value indicates a less restricted local mobility (e.g., a more flexible linkage between fiber and macrocycle). […] The NMRD fits show τm is primarily responsible for the variation in relaxivity observed upon annealing and Ca2+ cross-linking (Table 2). It is contemplated that annealing and calcium addition change macrocycle presentation on the fiber surface, extending them from the structure with increased peptide packing density and facilitating faster water exchange. […] The ^1H NMRD profiles were analyzed assuming one water molecule regularly coordinated to the Gd(III) ion in the presence of freely diffusing outer-sphere water. The contribution of the coordinated water protons […]) to the relaxation of bulk water protons (R1) largely depends on the τM of coordinated water if τ[…], as expected for Gd(HP-DO3A), according to the following relationship: R1=fM(1/[…]+τM)^-1+Ros where f^M is the mole fraction of ligand nuclei in bound positions and Ros is the outer-sphere contribution. […] is calculated by considering the simultaneous presence of both static (D) and transient (Δt) ZFS, as needed for Gd(III) complexes, through the “modified Florence” NMRD program, 4-6 assuming slow rotation, i.e. the molecular tumbling time τR is much longer than the electron relaxation time Tle. The PA fiber's micron-scale size assures that TR could be fixed to a large, constant value (≥100 ns) in the calculation of the relaxation profile. The ^1H NMRD profiles of PA 1 were repeated at both temperatures using the same Δt value of 0.0142 cm-1, D=0.046 cm-1, θ=42° (angle between the z-axis of the ZFS tensor and the metal-water direction) and a correlation time for electron relaxation τV=24 ps. A distance of closest approach of diffusing water molecules (d) of 7-10 Angstroms should be set, i.e. somewhat larger than usually found in isolated Gd(III) chelates (3.5-4 Å). […]

[3] = T1 and T2 relaxivity (r1, r2) at 1.41 T, Bruker Minispect relaxometer; type: physicochemical; settings: 1.41 tesla
Method: Using a Bruker Minispect relaxometer operating at 1.41 T, T1 and T2 relaxivity values (r1 and r2) were determined for each agent (Table 1). […] Thermal annealing followed by addition of CaCl2 caused complex changes in the observed agent relaxivity (Table 1). […] This increased accessibility is consistent with a more extended molecular structure as indicated by SAXS.
All concentrations used in relaxivity determination were obtained using ICP-MS. Samples were digested using ACS reagent grade nitric acid (70%) for a least 2 hours at 70° C. Samples were diluted in filtered, deionized water. A standard containing the elements Bi, Ho, In, Li, Sc, Tb, and Y was added to a final concentration of 5 ng/mL (Inorganic Ventures, Christiansburg, Va., USA). Final nitric acid concentration was 3%. The instrument was calibrated using a serial dilution of Gd(III) standards (Inorganic Ventures, Christiansburg, Va., USA) with nitric acid and internal standard concentrations identical to the samples. Calibration was conducted with 1.000, 5.000, 10.00, 20.00, 50.00, 100.0, and 200.0 ng/mL Gd(III) standards.
T1 Measurements were performed at 1.41 T with a Bruker Minispect mq60 magnet, using an inversion recovery sequence. T2 measurements were acquired using a Carr-Purcell-Meiboom-Gill (CPMG) pulse sequence. PAs were weighed out and dissolved in Millipore water to form 1 mg/mL solutions, and then these solutions were serial diluted to 0.5, 0.25, 0.125, 0.05, and 0.01 mg/mL concentrations. For each concentration, T1 and T2 were measured. These solution concentrations were then measured using ICP-MS for relaxivity determination. Samples were lyophilized and resuspended in 50 mM Tris and 150 mM NaCl buffer. These were then adjusted using small volumes of 0.1 M NaOH to reach pH 7.4. T1 and ICP-MS measurements were then taken of these solutions. The relaxometer tubes were heated at 80° C. for 30 min in a water bath. The bath was allowed to come to room temperature over several hours. T1 times were measured. Finally, 100 μL of 20 mM CaCl2 solution was added to each tube. The tubes were vortex-mixed and allowed to stand for 20 minutes. ICP-MS and T1 measurements were conducted once more.

[4] = Addition of CaCl2 to annealed solution

Row | Molecule | Gd(III) retention: remained in the mouse leg (ICP-MS) [1] [%] | τm (water exchange lifetime), best-fit value ([2]; Annealed) [ns] | τm (water exchange lifetime), best-fit value ([2]; Buffered) [ns] | τm (water exchange lifetime), best-fit value ([2]; Ca^2+) [ns] | S^2 (Lipari-Szabo order parameter), best-fit value [2] | τlocal, best-fit value [2] [ns] | r1 (T1 relaxivity) [3, 4] [mM⁻¹ s⁻¹] | r2 (T2 relaxivity) [3, 4] [mM⁻¹ s⁻¹] | r1 (T1 relaxivity) ([3]; After Thermal Annealing) [mM⁻¹ s⁻¹] | r2 (T2 relaxivity) ([3]; After Thermal Annealing) [mM⁻¹ s⁻¹] | r1 (T1 relaxivity) ([3]; H2O) [mM⁻¹ s⁻¹] | r2 (T2 relaxivity) ([3]; H2O) [mM⁻¹ s⁻¹] | r1 (T1 relaxivity) ([3]; Tris Buffer (pH 7.4)) [mM⁻¹ s⁻¹] | r2 (T2 relaxivity) ([3]; Tris Buffer (pH 7.4)) [mM⁻¹ s⁻¹]
1 | CCCCCCCCCCCCCCCC(=O)N[C@H](C(=O)N[C@H](C(=O)N[C@H](C(=O)N[C@@H](C)C(=O)N[C@@H](C)C(=O)N[C@@H](C)C(=O)N[C@@H](CCC(=O)O)C(=O)N[C@@H](CCC(=O)O)C(=O)N[C@@H](CCC(=O)O)C(=O)NCC(=O)N(CC(=O)N(CC(=O)N(CC(N)=O)Cc1cn(CC(O)CN2CCN(CC(=O)O)CCN(CC(=O)O)CCN(CC(=O)O)CC2)nn1)Cc1cn(CC(O)CN2CCN(CC(=O)O)CCN(CC(=O)O)CCN(CC(=O)O)CC2)nn1)Cc1cn(CC(O)CN2CCN(CC(=O)O)CCN(CC(=O)O)CCN(CC(=O)O)CC2)nn1)C(C)C)C(C)C)C(C)C (some centres unmarked) (Gd complex, metal not drawn) [PA3] | 54±9 | – | – | – | – | – | – | – | – | – | – | – | – | –
2 | C16-VVVAAAEEE-(peptoid linker)-(Gd(HP-DO3A) macrocycle) (C16-VVVAAAEEE-{peptoid linker-Gd(HP-DO3A)}; reading uncertain; also: Gd(III) chelated in HP-DO3A macrocycle) [PA2, V3A3E3 peptide amphiphile, Gd(III) contrast agent conjugated at the C-terminus without a glycine linker] | – | 540 | 640 | 410 | 0.3 | 4 | 21.7 ± 0.1 | 45 ± 2 | 16.9 ± 0.2 | 28.6 ± 0.6 | 17.3 ± 0.8 | 39 ± 2 | 16.7 ± 0.2 | 32.2 ± 0.5

Reference: patent US20180221513A1, “CONTRAST-AGENT-LABELED PEPTIDE AMPHIPHILE NANOFIBERS” (Northwestern University, priority 2015, published 2018)
